Patent US6017763

Columns and labels:
[1] = target: pig neutrophil Gβγ-activated PI3K A (p117/p101 heterodimer) (porcine)
[2] = target: pig neutrophil Gβγ-activated PI3K B (p120/p101 heterodimer) (porcine)
[3] = target: porcine 6×HIS-tagged p120, Sf9-derived (pAcHLT p120), uncleaved (porcine)
[4] = target: porcine twice-cut p120 (thrombin cleaved, lacking approximately 40 amino-terminal residues) (porcine)
[5] = target: Sf9-derived p101/p120 heterodimer ((EE)-p101 with 6×HIS-p120), formed in vivo by co-infection or reconstituted in vitro (porcine)

PI3K (lipid kinase) activity [1]: > 100 ×
PI3K (lipid kinase) activity [2]: > 100 ×
PI3K activity of free p120 [3]: 1.7 fold
PI3K activity of thrombin cleaved p120 [4]: 2.5 fold
PI3K activity [5]: > 100 ×
Substance: Gβγ subunits (purified G protein βγ subunits)
